According to EP3418383A1, “MODIFIED L-ASPARAGINASE” (XL-protein GmbH, priority 2017, dated 2018):

B1: Oncaspar®: E. coli L-asparaginase modified at multiple lysine residues using 5 kDa mPEG-succinimidyl succinate (conjugate, UniProt P00805 23-348, looked up)
L-asparaginase 2: LPNITILATGGTIAGGGDSATKSNYTVGKVGVENLVNAVPQLKDIANVKGEQVVNIGSQDMNDNVWLTLAKKINTDCDKTDGFVITHGTDTMEETAYFLDLTVKCDKPVVMVGAMRPSTSMSADGPFNLYNAVVTAADKASANRGVLVVMNDTVLDGRDVTKTNTTDVATFKSVNYGPLGYIHNGKIDYQRTPARKHTSDTPFDVSKLNELPKVGIVYNYANASDLPAKALVDAGYDGIVSAGVGNGNLYKSVFDTLATAAKTGTAVVRSSRVPTGATTQDAEVDDAKYGFVASGTLNPQKARVLLQLALTQTKDPQQIQQIFNQY
modifications: 5 kDa mPEG succinimidyl succinate
notes: E. coli L-asparaginase modified at multiple lysine residues using 5 kDa mPEG-succinimidyl succinate

Experiments:
[1] = L-asparaginase aminohydrolase activity, Nessler reagent assay (Example 1); assay type: biochemical; details: for Enzyme activity compared to the equally assayed non-modified Crisantaspase: Nessler assay of Example 1
Experimental: The modified proteins were purified by anion exchange chromatography (AEX) on a MonoQ HR5/5 column (GE Healthcare) using 25 mM Na-borate pH 9.0, 1 mM EDTA as running buffer and a NaCl concentration gradient from 0 to 1 M to elute the proteins. L-asparaginase aminohydrolase activity of each Crisantaspase modified protein was determined by reaction of ammonia that is liberated via L-asparagine enzymatic activity with the Nessler reagent. Briefly, 50 µL of enzyme solution was mixed with 20 mM of L-asparagine in a 100 mM sodium borate buffer pH 8.6 containing 0.015 % (w/v) bovine serum albumin and incubated for 15 min at 37 °C. The reaction was stopped by addition of 200 µL of Nessler reagent (Sigma-Aldrich). Absorbance of this solution was measured at 450 nm. The activity was calculated from a calibration curve that was obtained from ammonium sulphate as reference. Table 2: Enzymatic activities of Crisantaspase conjugated with Pga-P/A(20)-Ahx peptide in different amounts

[2] = Pharmacokinetics, plasma asparaginase activity after single IV bolus dose; assay type: in vivo; details: single IV bolus 25 IU/kg body weight, male CD-1 mice, non-compartmental
Experimental: The pharmacokinetic profile of E. coli expressed recombinant crisantaspase as a PASylated fusion protein (PA-200) or chemically conjugated to PA-peptides (PA-20) was characterized following administration of a single intravenous bolus dose to CD-1 mice. The CD-1 mice is a model for a healthy mouse.
All animals received a single intravenous (IV) bolus via the lateral tail vein (10 mL/kg) based on the body weight taken prior to dosing. Individual doses were calculated based upon the most recent individual body weights to provide the proper dose. The first day of dosing was based on study day 0 body weights.
PASylated asparaginase was administered as a single IV dose of 25 IU/kg body weight to mice. […] Asparaginase activity in mouse plasma was measured using a qualified biochemical assay as described in the previous examples. […]
Asparaginase activity was measured as the concentration of asparaginase in the plasma samples as previously described (Allas et al. (2009) Blood, 114, 2033). […] The plasma asparaginase activity versus time data were analyzed using non-compartmental methods with sparse sampling in an IV bolus administration model. Activity values below the limit of quantitation of the assay (10 U/L) were set to zero in the calculation of group means. […]

[3] = Analytical gel filtration (SEC), hydrodynamic volume / apparent molecular size; assay type: physicochemical; details: tetramer, Superdex S200 10/300 GL, PBS, 1 mg/ml
Description: In order to avoid polymerization of the peptides upon chemical activation of the C-terminus, the N-terminus was protected with pyroglutamyl (Pga) residue. Aminohexanoic acid (Ahx) was incorporated at the C-terminus of the peptides to serve as linker. […] The hydroxybenzotriazol (HOBt) active ester of the peptide is subsequently used to derivatize the amino groups (ε-amino groups of lysine residues or α-amino group of N-terminus) of Crisantaspase with the P/A peptide through formation of peptide or isopeptide bonds, while free HOBt is released. This coupling step is performed in aqueous solution (e.g. PBS buffer) with a content of organic solvent ≤ 30 %. […] The number of coupled P/A peptides can be determined by counting the bands in that ladder starting from the unconjugated Crisantaspase as marked on the right. […] Separation of remaining uncoupled peptide and other non-proteinous byproducts of the chemical conjugation devoid of UV absorption at 280 nm was monitored by the 225 nm UV trace. […]

[4] = L-asparaginase enzyme activity, Nessler endpoint assay, specific activity (Example 8); assay type: biochemical; details: Crisantaspase expression system E. coli; for Nessler (Average): average of plates 1-3; for Nessler Plate 1 / Nessler Plate 2 / Nessler Plate 3: specific activity
Experimental: PASylated L-asparaginase enzyme activity was determined by catalysis of the conversion of L-asparagine into L-aspartic acid. This reaction liberates one mole of ammonia per mole of converted L-asparagine. The released ammonia is detected using Nessler's reagent. In the presence of Nessler's reagent the ammonia will form a watersoluble yellow complex that can be quantified by absorbance measurement at 450 nm (Mashburn et al. (1963) Biochem. Biophys. Res. Commun. 12, 50). One unit of L-asparaginase enzyme activity (International Unit or IU) is defined as the amount of enzyme that catalyzes the conversion of one µmol of L-asparagine per minute. The specific activity of the samples (IU/mg) is determined by dividing the value of L-asparaginase activity expressed in IU/mL by the protein concentration expressed in mg/mL. The mass of the protein monomer with the PASylated sequence was measured.
The measurement of L-asparaginase activity is based on an endpoint assay in which the sample is diluted to a series of final enzyme concentrations which are then incubated at 37°C under saturating L-asparagine concentration for 15 minutes. The reaction is stopped by addition of Nessler's reagent and the amount of ammonia produced by the reaction is extrapolated from a calibration curve constructed from known quantities of ammonium sulfate used as standard. A plot of enzyme concentration versus ammonia is then created for each sample and the slope of the curve divided by the reaction time to obtain the specific activity in IU/mg. Specific activity is reported as IU/mg and is reported to the nearest whole number.

[5] = PEGylated enzyme compared to the unmodified L-asparaginase; cited from earlier work
[6] = children who received the drug; cited from earlier work
[7] = 3.5 mg PA peptide/mg Crisantaspase, 10.4 mol PA peptide/mol monomer
[8] = 5 mg PA peptide/mg Crisantaspase, 11.2 mol PA peptide/mol monomer
[9] = 7.5 mg PA peptide/mg Crisantaspase, 11.7 mol PA peptide/mol monomer
[10] = 10 mg PA peptide/mg Crisantaspase, 12.0 mol PA peptide/mol monomer

Molecule	Enzyme activity compared to the equally assayed non-modified Crisantaspase [1]	apparent molecular size [3]	Nessler (Average) [4]	Nessler Plate 1 [4]	Nessler Plate 2 [4]	Nessler Plate 3 [4]	further results
Pyroglutamoyl-P/A(20)-aminohexanoyl-Crisantaspase [Crisantaspase/PA(20) modified protein]	91.2%	531 kDa	676 IU/mg	694 IU/mg	732 IU/mg	602 IU/mg	t½ [2]: 50.2 h
Pyroglutamoyl-P/A(40)-aminohexanoyl-Crisantaspase [Crisantaspase/PA(40) modified protein]	78.2%	820 kDa	528 IU/mg	567 IU/mg	528 IU/mg	490 IU/mg	
Pyroglutamoyl-P/A(20)-aminohexanoyl-Crisantaspase							Rel. activity [1, 7]: 94.1%; Specific activity [1, 7]: 508 ± 20 U/mg; Rel. activity [1, 8]: 80.7%; Specific activity [1, 8]: 436 ± 22 U/mg; Rel. activity [1, 9]: 74.3%; Specific activity [1, 9]: 401 ± 21 U/mg; Rel. activity [1, 10]: 47.4%; Specific activity [1, 10]: 256 ± 20 U/mg
B1							in vitro activity [5]: approximately 50%; children who had an allergic reaction [6]: 30-41%
